Results published in publication PMC3680705.

Molecular target: Drosophila Slit D1-4 (the four leucine-rich repeat domains) (Drosophila)
Assay: ELISA

Drosophila Slit D1-4 (the four leucine-rich repeat domains) (Drosophila), sequence (P24014 64-922): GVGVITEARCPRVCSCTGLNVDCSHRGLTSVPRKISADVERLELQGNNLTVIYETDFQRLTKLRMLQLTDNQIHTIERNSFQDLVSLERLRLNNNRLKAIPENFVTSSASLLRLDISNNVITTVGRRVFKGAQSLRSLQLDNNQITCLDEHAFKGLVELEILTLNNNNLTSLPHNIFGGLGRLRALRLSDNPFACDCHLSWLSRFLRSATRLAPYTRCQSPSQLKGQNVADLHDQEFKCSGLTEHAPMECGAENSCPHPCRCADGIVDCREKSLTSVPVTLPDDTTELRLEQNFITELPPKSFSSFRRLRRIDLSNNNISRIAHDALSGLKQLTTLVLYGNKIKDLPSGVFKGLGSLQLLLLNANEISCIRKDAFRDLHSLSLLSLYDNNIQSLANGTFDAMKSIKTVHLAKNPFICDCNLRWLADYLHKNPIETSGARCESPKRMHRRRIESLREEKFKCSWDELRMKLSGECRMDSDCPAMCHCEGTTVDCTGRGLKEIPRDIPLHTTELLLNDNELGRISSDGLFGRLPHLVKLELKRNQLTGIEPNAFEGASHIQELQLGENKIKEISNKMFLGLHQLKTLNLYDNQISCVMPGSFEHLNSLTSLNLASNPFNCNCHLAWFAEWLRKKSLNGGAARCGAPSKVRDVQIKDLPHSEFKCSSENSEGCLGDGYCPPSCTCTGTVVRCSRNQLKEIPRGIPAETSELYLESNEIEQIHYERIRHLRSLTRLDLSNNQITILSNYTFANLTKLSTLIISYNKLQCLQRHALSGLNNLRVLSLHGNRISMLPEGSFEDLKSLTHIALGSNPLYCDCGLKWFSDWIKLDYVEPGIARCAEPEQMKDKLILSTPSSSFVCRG

fold increase of the apparent affinity with 10 μg/ml heparin against no heparin: > 10 fold
Substance: Drosophila Robo IG1–5 Fc (Fc fusion)
